Measured values taken from article PMC7679444.

Molecular target: GST-HA-ATG16L1(231–607), Q676U5
Assay: peptide microarray
Details: chain shown with the change; 800, 600, 400 nM; n = 9; read off a plot

Chain of GST-HA-ATG16L1(231–607), Q676U5 (Q676U5 231-607): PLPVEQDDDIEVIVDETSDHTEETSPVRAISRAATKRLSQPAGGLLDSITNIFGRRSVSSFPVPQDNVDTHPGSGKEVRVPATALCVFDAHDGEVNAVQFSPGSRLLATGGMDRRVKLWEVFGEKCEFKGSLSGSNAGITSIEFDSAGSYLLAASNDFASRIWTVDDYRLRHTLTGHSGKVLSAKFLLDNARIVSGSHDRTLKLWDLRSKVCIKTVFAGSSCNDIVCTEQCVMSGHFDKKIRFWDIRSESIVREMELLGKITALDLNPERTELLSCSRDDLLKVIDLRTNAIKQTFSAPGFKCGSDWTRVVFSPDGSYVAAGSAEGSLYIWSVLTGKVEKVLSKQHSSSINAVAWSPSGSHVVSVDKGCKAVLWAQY

Binder | percent of parent
YEKLSIYGDL [TMEM59 peptide (residues 268–280), wild type, Q9BXS4 V269del; P270del; S271del] | 160 % WT
YVPSELYGDL [TMEM59 peptide (residues 268–280), wild type, Q9BXS4 K273del; S275del; I276del] | 110 % WT
